The numbers were not newly measured in publication PMC10092198, which cites them from elsewhere.

Broadly, the Kd is the free concentration of one partner at which half of the binding sites on the other are occupied at equilibrium, for simple one-to-one binding.

The data set addresses C3b (mC3b) C3b (Mus musculus) (UniProt P01027).
Sequence of UniProt P01027 (P01027 566-669): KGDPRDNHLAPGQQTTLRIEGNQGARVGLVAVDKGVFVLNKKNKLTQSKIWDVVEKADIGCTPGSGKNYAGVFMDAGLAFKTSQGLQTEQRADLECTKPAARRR

Factor H (mFH) (from UniProt P06909): the Kd was 1000 nM.
